Data as given in publication PMC8063757, “The DNA-binding protein HU is a molecular glue that attaches bacteria to extracellular DNA in biofilms” (The Journal of Biological Chemistry, 2020).
“And” between values parts separate entries of the source, which are not always exact repeats. Equal values may be shown once.

Columns and labels:
[1] = molecular target: the molecule itself; assay: cross-linking; glutaraldehyde added to HU-B or its variant alone (no f-LPS); 15% SDS-PAGE, Coomassie Blue G-250 staining
[2] = molecular target: the molecule itself; assay: SEC; Superdex-75 10/300GL on an AKTA Purifier-10; elution at ~12 ml, corresponding to ~25 kDa
LoodHU-B K83A = molecular target: T1, LoodHU-B K83A (Escherichia coli K-12, UniProt P0ACF4 1-51+=SGGGGSGGGGS+75-90, K83A;internal_change); assay: EMSA; EMSA on 0.7% or 1% agarose gels, EtBr stain; binding buffer, salt, pH and temperature not stated; conditions: protein: recombinant; chain copies: 2; label: none (EtBr stain); four-way junction of 4 strands, equimolar, one copy each; strands as printed are not perfectly complementary
T1 sequence: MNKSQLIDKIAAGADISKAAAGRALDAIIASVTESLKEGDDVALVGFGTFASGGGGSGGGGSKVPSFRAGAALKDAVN

LoodHU-B K86A = molecular target: T2, LoodHU-B K86A (Escherichia coli K-12, UniProt P0ACF4 1-51+=SGGGGSGGGGS+75-90, K86A;internal_change); assay: as above; conditions: protein: recombinant; chain copies: 2; label: none (EtBr stain); four-way junction of 4 strands, equimolar, one copy each; strands as printed are not perfectly complementary
T2 sequence: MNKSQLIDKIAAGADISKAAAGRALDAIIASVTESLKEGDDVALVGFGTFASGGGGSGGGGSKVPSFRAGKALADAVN

LoodLysrHU-B = molecular target: T3, LoodLysrHU-B (Escherichia coli K-12, UniProt P0ACF4 1-51+=SGGGGSGGGGS+75-90, K83A;K86A;internal_change); assay: as above; conditions: protein: recombinant; chain copies: 2; label: none (EtBr stain); four-way junction of 4 strands, equimolar, one copy each; strands as printed are not perfectly complementary
T3 sequence: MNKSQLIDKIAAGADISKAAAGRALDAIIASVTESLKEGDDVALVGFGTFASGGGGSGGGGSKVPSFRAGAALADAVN

HU-A K86A = HU-A K86A (Escherichia coli K-12, UniProt P0ACF0 1-90, K86A); assay: as above; conditions: protein: recombinant; chain copies: 2; label: none (EtBr stain); four-way junction of 4 strands, equimolar, one copy each; strands as printed are not perfectly complementary
LoodHU-B = molecular target: T4, LoodHU-B (Escherichia coli K-12, UniProt P0ACF4 1-51+=SGGGGSGGGGS+75-90, internal_change); assay: as above; conditions: protein: recombinant; chain copies: 2; label: none (EtBr stain); four-way junction of 4 strands, equimolar, one copy each; strands as printed are not perfectly complementary
T4 sequence: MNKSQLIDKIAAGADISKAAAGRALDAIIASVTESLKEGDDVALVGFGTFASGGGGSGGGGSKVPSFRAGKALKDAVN

F47W HU-B = molecular target: T5, F47W HU-B (Escherichia coli K-12, UniProt P0ACF4 1-90, F47W); assay: as above; conditions: protein: recombinant; chain copies: 2; label: none (EtBr stain); four-way junction of 4 strands, equimolar, one copy each; strands as printed are not perfectly complementary
T5 sequence: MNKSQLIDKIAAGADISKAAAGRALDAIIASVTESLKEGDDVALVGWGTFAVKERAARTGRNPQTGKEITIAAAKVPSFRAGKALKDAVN

LysrHU-A = LysrHU-A (Escherichia coli K-12, UniProt P0ACF0 1-90, K83A;K86A); assay: as above; conditions: protein: recombinant; chain copies: 2; label: none (EtBr stain); four-way junction of 4 strands, equimolar, one copy each; strands as printed are not perfectly complementary
LoodLysrHU-A = LoodLysrHU-A (Escherichia coli K-12, UniProt P0ACF0 1-51+=SGGGGSGGGGS+75-90, K83A;K86A;internal_change); assay: as above; conditions: protein: recombinant; chain copies: 2; label: none (EtBr stain); four-way junction of 4 strands, equimolar, one copy each; strands as printed are not perfectly complementary
LoodHU-A K86A = LoodHU-A K86A (Escherichia coli K-12, UniProt P0ACF0 1-51+=SGGGGSGGGGS+75-90, K86A;internal_change); assay: as above; conditions: protein: recombinant; chain copies: 2; label: none (EtBr stain); four-way junction of 4 strands, equimolar, one copy each; strands as printed are not perfectly complementary
HU-A K83A = HU-A K83A (Escherichia coli K-12, UniProt P0ACF0 1-90, K83A); assay: as above; conditions: protein: recombinant; chain copies: 2; label: none (EtBr stain); four-way junction of 4 strands, equimolar, one copy each; strands as printed are not perfectly complementary
HU-B K86A = molecular target: T6, HU-B K86A (Escherichia coli K-12, UniProt P0ACF4 1-90, K86A); assay: as above; conditions: protein: recombinant; chain copies: 2; label: none (EtBr stain); four-way junction of 4 strands, equimolar, one copy each; strands as printed are not perfectly complementary
T6 sequence: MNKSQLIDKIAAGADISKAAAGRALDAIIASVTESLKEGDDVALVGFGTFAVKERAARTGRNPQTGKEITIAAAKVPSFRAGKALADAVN

HU-B K83A = molecular target: T7, HU-B K83A (Escherichia coli K-12, UniProt P0ACF4 1-90, K83A); assay: as above; conditions: protein: recombinant; chain copies: 2; label: none (EtBr stain); four-way junction of 4 strands, equimolar, one copy each; strands as printed are not perfectly complementary
T7 sequence: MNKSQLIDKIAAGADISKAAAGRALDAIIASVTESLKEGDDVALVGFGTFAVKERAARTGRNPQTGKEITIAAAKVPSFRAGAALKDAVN

F79W HU-B = molecular target: T8, F79W HU-B (Escherichia coli K-12, UniProt P0ACF4 1-90, F79W); assay: as above; conditions: protein: recombinant; chain copies: 2; label: none (EtBr stain); four-way junction of 4 strands, equimolar, one copy each; strands as printed are not perfectly complementary
T8 sequence: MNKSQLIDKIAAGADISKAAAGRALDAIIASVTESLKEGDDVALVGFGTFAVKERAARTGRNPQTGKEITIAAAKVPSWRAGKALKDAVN

HU-B = molecular target: T9, HU-B (Escherichia coli K-12, UniProt P0ACF4 1-90); assay: as above; conditions: protein: recombinant; chain copies: 2; label: none (EtBr stain); four-way junction of 4 strands, equimolar, one copy each; strands as printed are not perfectly complementary
T9 sequence: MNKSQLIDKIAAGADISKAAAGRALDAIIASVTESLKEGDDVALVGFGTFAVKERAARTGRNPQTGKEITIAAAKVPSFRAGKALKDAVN

LoodHU-A K83A = LoodHU-A K83A (Escherichia coli K-12, UniProt P0ACF0 1-51+=SGGGGSGGGGS+75-90, K83A;internal_change); assay: as above; conditions: protein: recombinant; chain copies: 2; label: none (EtBr stain); four-way junction of 4 strands, equimolar, one copy each; strands as printed are not perfectly complementary
LysrHU-B = molecular target: T10, LysrHU-B (Escherichia coli K-12, UniProt P0ACF4 1-90, K83A;K86A); assay: as above; conditions: protein: recombinant; chain copies: 2; label: none (EtBr stain); four-way junction of 4 strands, equimolar, one copy each; strands as printed are not perfectly complementary
T10 sequence: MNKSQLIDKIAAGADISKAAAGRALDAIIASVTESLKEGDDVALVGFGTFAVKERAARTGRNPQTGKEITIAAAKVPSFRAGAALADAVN

B1: HU-B WT (6xHis-tagged) (natural protein, E. coli K-12)
chain: MNKSQLIDKIAAGADISKAAAGRALDAIIASVTESLKEGDDVALVGFGTFAVKERAARTGRNPQTGKEITIAAAKVPSFRAGKALKDAVN
notes: HU-B, isoform of the nucleoid-associated histone-like protein HU of E. coli; gene PCR-amplified from E. coli K-12 genomic DNA; ~90 amino acids, ~9.2-kDa polypeptide; Cloned between BamHI and HindIII of pQE-30; also called WT HU; source: E. coli XL-1 Blue (pQE-30), purified (Ni-NTA, 2 M NaCl wash)
- stoichiometry N [1]: 2 and 4 and 3 and 6

B2: LysrHU-B (lysine-replaced HU-B, K83A and K86A) (natural protein, E. coli K-12)
chain: MNKSQLIDKIAAGADISKAAAGRALDAIIASVTESLKEGDDVALVGFGTFAVKERAARTGRNPQTGKEITIAAAKVPSFRAGAALADAVN
notes: source: E. coli XL-1 Blue (pQE-30), purified (Ni-NTA, 2 M NaCl wash)
- stoichiometry N [1]: 4
- stoichiometry N [2]: 2

B3: LoodLysrHU-B (loop-deleted and lysine-replaced HU-B) (natural protein, E. coli K-12)
chain: MNKSQLIDKIAAGADISKAAAGRALDAIIASVTESLKEGDDVALVGFGTFASGGGGSGGGGSKVPSFRAGAALADAVN
notes: HU-B of E. coli K-12, the stretch before the deleted loop (residues 52 to 74 deleted); 11-residue glycine/serine-rich linker that replaces residues 52 to 74; HU-B of E. coli K-12, the stretch after the deleted loop, with K83A and K86A (numbers count on unchanged HU-B); Combines the LoodHU-B and LysrHU-B changes; source: E. coli XL-1 Blue (pQE-30), purified (Ni-NTA, 2 M NaCl wash)
- stoichiometry N [1]: 4
- stoichiometry N [2]: 2

B4: LoodHU-B (loop-deleted HU-B) (natural protein, E. coli K-12)
chain: MNKSQLIDKIAAGADISKAAAGRALDAIIASVTESLKEGDDVALVGFGTFASGGGGSGGGGSKVPSFRAGKALKDAVN
notes: HU-B of E. coli K-12, the stretch before the deleted loop (residues 52 to 74 deleted); 11-residue glycine/serine-rich linker that replaces residues 52 to 74; HU-B of E. coli K-12, the stretch after the deleted loop (residues 52 to 74 deleted); The results call the loop 22 residues long, but residues 52 to 74 are 23 residues; source: E. coli XL-1 Blue (pQE-30), purified (Ni-NTA, 2 M NaCl wash)
- stoichiometry N [1]: 4
- stoichiometry N [2]: 2

B5: 4WJ DNA (structured_DNA)
DNA 1: CCCTATAACCCCTGCATTGAATTCCTGTCTGATAA
DNA 2: GTAGTCGTGATAGGTGCAGGGGTTATAGGG
DNA 3: AACAGTAGCTCTTAATTCGAGCTCGCGCCCTATCACGACTA
DNA 4: TTTATCAGACTGGAATTCAAGCGCGAGCTCGAATAAGAGCTACTGT
- binding result (LoodHU-B K83A): no binding
- binding result (LoodHU-B K86A): no binding
- binding result (LoodLysrHU-B): no binding
- binding result (HU-A K86A): binds
- binding result (LoodHU-B): binds
- binding result (F47W HU-B): binds
- binding result (LysrHU-A): binds
- binding result (LoodLysrHU-A): no binding
- binding result (LoodHU-A K86A): no binding
- binding result (HU-A K83A): binds
- binding result (HU-B K86A): binds
- binding result (HU-B K83A): binds
- binding result (F79W HU-B): binds
- binding result (HU-B): binds
- binding result (LoodHU-A K83A): no binding
- binding result (LysrHU-B): binds
